Values joined by “and” are separate entries in the source; they are usually repeats but may differ in a detail not shown here. Identical values can stand only once.
What was measured:
[1] = DAO activity determination, colorimetric DA-67 enzyme assay (specific / total DAO activity); type: biochemical
Method: The DAO activity was determined using the colorimetric DA-67 enzyme assay, as known in the art.

[2] = Temperature and pH profile of DAO-1 (DA-67 assay); type: biochemical
Method: The influence of temperature on the enzyme activity of DAO-1 was tested under standard assay conditions, whereby the incubation temperature was varied between 2° and 47° C. The pH-dependency of the DAO-1 activity was investigated under standard assay conditions at 37° C., whereby different buffer systems (50 mM sodium phosphate buffer, pH 6.2-7.8; 50 mM PIPES, pH 7-7.5; 50 mM Tris-HCl, pH 7.2-8.5) were used. The respective buffer system was calibrated with hydrogen peroxide (0.5 to 10 nmol/mL). Analytically pure histamine was used as a substrate for the temperature and pH profiles.

[3] = pH-stability of DAO-1 in buffer systems at 37° C; type: physicochemical
Method: Consequently, DAO-1 was incubated for 5 h at 37° C. and stirred at 400 rpm in the following buffer systems: 20 mM MES (pH 5.5), 20 mM sodium phosphate buffer (pH 6.2, 7.0, 7.2, 7.8, 8.0), 20 mM PIPES (pH 7.0, 7.2, 7.5) and 20 mM Tris-HCl (pH 6.8, 7.5, 8.2). Afterwards, the residual enzyme activity of DAO-1 was determined under standard assay conditions and compared to the DAO-1 activity applied initially.

[4] = Michaelis-Menten kinetics of DAO-1 in PIPES buffer; type: biochemical; settings: read-out: Km for histamine; PIPES buffer 25 mM pH 7.2, 37° C
Description: Kinetic investigations were done within the initial reaction velocity.

[5] = Substrate selectivity of DAO-1 (DA-67 assay), histamine; type: biochemical
Method: (§1) The amino acids L-tryptophan, L-lysine, L-histidine, and L-arginine were also tested.

[6] = Substrate selectivity of DAO-1 (DA-67 assay), tyramine; type: biochemical; settings: 100% = 10 mM histamine
Method: as §1

[7] = Substrate selectivity of DAO-1 (DA-67 assay), putrescine; type: biochemical; settings: 100% = 10 mM histamine
Method: as §1

[8] = Substrate selectivity of DAO-1 (DA-67 assay), cadaverine; type: biochemical; settings: 100% = 10 mM histamine
Method: as §1

[9] = Substrate selectivity of DAO-1 (DA-67 assay), agmatine; type: biochemical; settings: 100% = 10 mM histamine
Method: as §1

[10] = Substrate selectivity of DAO-1 (DA-67 assay), spermidine; type: biochemical; settings: 100% = 10 mM histamine
Method: as §1

[11] = Substrate selectivity of DAO-1 (DA-67 assay), tryptamine; type: biochemical; settings: substrate tryptamine 1 mM; 100% = 10 mM histamine
Method: as §1

[12] = Substrate selectivity of DAO-1 (DA-67 assay), amino acids; type: biochemical; settings: L-tryptophan, L-lysine, L-histidine, L-arginine at 1, 10 and 50 mM
Method: as §1

[13] = Histamine bioconversion with DAO-1 in PIPES buffer with simulated food matrix (RP-HPLC); type: biochemical; settings: for histamine concentration after bioconversion: 0.1 nkat/mL DAO-1, 5 h
Method: An amount of 5 g/L BSA and 25 g/L sucrose were added to the approach to simulate a food matrix. Additionally, catalase was added (30 nkat/mL) to remove the hydrogen peroxide. The experiment was started by the addition of 0.1 nkat/mL DAO-1 activity.

[14] = Stability of DAO-1 in simulated intestinal fluid (SIF) with and without food matrices; type: in vitro ADME
Method: The stability of DAO-1 was tested in a simulated intestinal fluid (SIF) with and without the addition of simulated food matrices. Therefore, pancreatin-containing SIF was prepared as described in the United States Pharmacopeia (USP42). Different food-matrix stock solutions (4× concentrated) were prepared as follows: 200 g/L bovine serum albumin (BSA) and 100 g/L sucrose (=food-matrix 1), 100 g/L BSA, 100 g/L whey protein isolate (WPI) and 200 g/L sucrose (=food-matrix 2) and BSA, WPI, sodium-caseinate each at 66.68 g/L and 200 g/L sucrose (=food-matrix 3). The pH of each stock solution was adjusted to 6.8 with 1 M NaOH. The freshly prepared 2× concentrated SIF, the food-matrix stock solutions as well as DAO-1 (desalted against H2Odd using PD MidiTrap G-25 columns; GE Healthcare, Chicago, USA) were individually incubated for 5 min in a thermoshaker at 37° C. Subsequently, 500 μL of 2× concentrated SIF, 250 μL of DAO-1 and 250 μL of the food-matrix stock solutions were combined and incubated at 37° C., 500 rpm in a thermoshaker. In order to test the stability of DAO-1 without the presence of stabilizing compounds, H2Odd was added instead of the food-matrix stock solution. Immediately after combining the solutions, a sample of 100 μL was taken and used for the DAO-1 activity determination using the DA-67 assay.

[15] = substrate: NCCc1c[nH]cn1; assay: purified protein, by the assay type
[16] = bioreactor cultivation, crude extract
[17] = other: apparent, histamine 0.5-50 mM, PIPES buffer (25 mM; pH 7.2), 37° C., pH 7.2

B1: Yarrowia lipolytica PO1f diamine oxidase-1 (DAO-1), wild type, SEQ ID NO: 1 (Yarrowia lipolytica CLIB122) (protein)
chain: MTPHPFDQLSVQEMESVVRVVKSNHSGKSLHLKSIGTEEPPKALMAPFLAAKRAGKNPVPPPRIAHVIYYVLEDKLVNQCWVDVPSAKVVKSEVLKKGIHPPIDPWEANEAFEAAFDHPLVKDAIKKCGVEHLIDNLTIDGWMYGCDSEIDMPRYLQMLVYCRDPKTNHQDSNMYAFPVPFVPVYDVLEKKLVRVDYCATGGDDDDAAVEGVGNYDTRPEGKNCIEHCVTNDYLPELQDKMRTDLKPYNVLQPEGPSYHIDSDGYINWQKWHFKVGFTPREGLVIHDVHYDGRSTFYRLSMSEMAVPYADPRPPLHRKMAFDFGDCGGGKCANELTLGCDCLGTIRYFDGNVCDPEGNVFTRKNVICMHEQDDGIGWKHTNYRTDVVAITRRRILVLQTILTVGNYEYIFAWHFDQSAGIQLEIRATGIVSTQLIDAGKKSKFGTIVSPGVMAASHQHIFNVRMDPAIDGHQNTVVVNDTVALPWDAKNPHGIAFENTKTPIEKSCYLDSDIQKNRYLKICNENKINPISGNPVGYKIGGLATAMLYAQPGSVSRNRAAFATHHYWVTKYKDQELFAGGVWTNQSANEVGGVQDAVARNENVRNDDVVLWHSFGLTHHPRVEDFPVMPCEIMKIHLSPNDFFTGNPSVDVPKSNQTFNRSVEVKDCRSCKI
In the case of B1, the “increase of specific DAO-1 activity compared to the recent work” value ([1]; 5 L scale purified preparation) is reported as 3 fold, the “specific DAO-1 activity” value ([1]; 5 L scale, stirred media mill, ammonium sulfate precipitation and HIC) is reported as 15 μkat/gProtein and the “specific DAO-1 activity of crude extract relative to partially purified porcine DAO” value ([1]; 1301 vs 81 nkat/gProtein) is reported as “around 16 times”. For the same molecule, the “specific DAO-1 activity” value ([1]; DAO-1 produced in Komagataella phaffii, fed-batch bioreactor) was 2500 nkat/gProtein, the “specific DAO-1 activity relative to specific DAO activity obtained from porcine kidney” value ([1]; K. phaffii DAO-1 after assumed 7.2-fold purification) was “more than 200 fold” and the “specific DAO-1 activity” value ([1]; after (NH4)2SO4 precipitation and hydrophobic interaction chromatography) was 4738±31 nkat/gProtein. The “specific DAO-1 activity” value ([1]; after cell disruption (high-pressure homogenizer) of 10 g wet yeast biomass, before purification) was 660±28 nkat/gProtein, the “increase in specific DAO activity compared with extracted and purified DAO from porcine kidney” value ([1]; after chromatographic purification) was about 60 fold and the “increase in specific DAO activity compared with DAO extraction from porcine kidney” value [1, 16] was 145 fold. For the same molecule, the “increase in specific DAO activity compared with native DAO-1 production in Y. lipolytica PO1f” value [1, 16] was 93 fold, the “specific DAO-1 activity” value ([1]; crude extract, bioreactor cultivation of Y. lipolytica PO1f_axp_dao-1, final (96 h)) was 1301±54.2 nkat/gProtein and the “relative DAO-1 activity” value ([2]; 42° C, relative to maximum at 40° C) was 76±1%. For the same molecule, the “relative DAO-1 activity” value ([2]; 45° C, relative to maximum at 40° C) was 31.7±1%, the “DAO-1 activity compared to the maximal activity in Tris-HCl at pH 7.2” value ([2]; PIPES buffer) was 92.2±3.9% and the “temperature of maximal DAO-1 activity” value ([2]; PIPES buffer 25 mM pH 7.2, histamine substrate) was 40 °C. For the same molecule, the “pH of maximal DAO activity” value ([2]; Tris-HCl buffer (50 mM), 37° C, histamine substrate) was 7.2, the “Maximal DAO-1 activity (100%)” value ([2]; pH/buffer profile at 37° C (FIG. 8)) was 1.84±0.03 nkat/mL and the “Maximal DAO-1 activity (100%)” value ([2]; temperature profile, PIPES 25 mM pH 7.2 (FIG. 7)) was 1.88±0.01 nkat/mL. For the same molecule, the “relative DAO-1 activity” value ([2]; temperature range between 3° and 42° C) was “greater than 50%”, the “residual DAO-1 activity” value ([3]; 37° C, 5 h, pH range from 6.2 to 7.5) was “more than 60%” and the “residual DAO-1 activity” value ([3]; 37° C, 24 h) was 53.7±1.2%. The “residual DAO-1 activity” value ([3]; PIPES buffer (20 mM) pH 7.0, 37° C, 5 h) was 89.5±0.8%, the Km [4] was 2300 µM and the “DAO-1 activity [%]” value ([5]; substrate histamine 1 mM, 100% = 10 mM histamine) was 45.1 ± 0.7%. For the same molecule, the “DAO-1 activity [%]” value ([5]; substrate histamine 10 mM, reference 100%) was 100 ± 1.5%, the “DAO-1 activity [%]” value ([5]; substrate histamine 50 mM, 100% = 10 mM histamine) was 74.4 ± 1.1% and the “DAO-1 activity [%]” value ([6]; substrate tyramine 1 mM) was 303.9 ± 4.4%. The “DAO-1 activity [%]” value ([6]; substrate tyramine 10 mM) was 246.8 ± 3.6%, the “DAO-1 activity [%]” value ([6]; substrate tyramine 50 mM) was 66.4 ± 1.0% and the “DAO-1 activity [%]” value ([7]; substrate putrescine 1 mM) was 29.8 ± 0.4%. The “DAO-1 activity [%]” value ([7]; substrate putrescine 10 mM) was 92.9 ± 1.4%, the “DAO-1 activity [%]” value ([7]; substrate putrescine 50 mM) was 77.9 ± 1.1% and the “DAO-1 activity [%]” value ([8]; substrate cadaverine 1 mM) was 29.6 ± 0.4%. The “DAO-1 activity [%]” value ([8]; substrate cadaverine 10 mM) was 87.3 ± 1.3%, the “DAO-1 activity [%]” value ([8]; substrate cadaverine 50 mM) was 64.5 ± 1.0% and the “DAO-1 activity [%]” value ([9]; substrate agmatine 1 mM) was 31 ± 1.1%. The “DAO-1 activity [%]” value ([9]; substrate agmatine 10 mM) was 30.6 ± 2.7%, the “DAO-1 activity [%]” value ([9]; substrate agmatine 50 mM) was 7.4 ± 2.3% and the “DAO-1 activity [%]” value ([10]; substrate spermidine 1 mM) was 2.1 ± 1.6%. For the same molecule, the “DAO-1 activity [%]” value ([10]; substrate spermidine 10 mM) was 3.8 ± 0.9%, the “DAO-1 activity [%]” value ([10]; substrate spermidine 50 mM) was 2.1 ± 1.3% and the “DAO-1 activity [%]” value [11] was 166.1 ± 0.8%. For the same molecule, the “DAO-1 activity towards amino acids” value [12] was “did not show any activity”, the “residual activity of DAO-1 after bioconversion” value ([13]; after 5 h bioconversion at 37° C, determined by RP-HPLC) was 57.4±1.3% and the “histamine concentration at start of stagnation” value ([13]; around 4 h) was 43.5±0.76 mg/L and 0.39±0.01 mM. The “histamine concentration after bioconversion” value ([13]; initial 1.35 mM, 37° C) was 0.34 ± 0.01 mM, the “histamine concentration after bioconversion” value ([13]; initial 150 mg/L, 37° C) was 37.4±0.65 mg/L and 37.4±+0.65 mg/L and the “remaining histamine relative to initial (100%)” value ([13]; initial 150 mg/L, 5 hours, 37° C) was 25±1.7%. The half-life period ([14]; food-matrix SIF 1 (50 g/L BSA, 25 g/L sucrose), 37° C) was “around 15 min”, the half-life period ([14]; food-matrix SIF 2 (25 g/L BSA, 25 g/L WPI, 50 g/L sucrose), 37° C) was “around 30 min” and the “initially applied DAO-1 activity available over 90 min” value ([14]; food-matrix SIF 3, 37° C) was “around 43%”. For the same molecule, the “residual DAO-1 activity” value ([14]; food-matrix SIF 3, 90 min, 37° C) was 8±0.1%, the half-life period ([14]; pure SIF (pancreatin), 37° C) was “less than 5 min” and the Km [15, 17] was 2300 ± 200 µM. It also gave a Vmax [15, 17] of 9.09±0.37 nkat/mg and a Km ([15]; other: hydrolyzed food-matrix SIF 3 (pancreatin, 90 min at 37° C.), pH 6.8, histamine 1.56-50 mM, pH 6.8) of 4200 ± 500 µM.

Reference: US20250320468A1, “New Microbial Diamine Oxidase Derived from Yarrowia Lipolytica for the Degradation of Biogenic Amines” (UNIVERSITÄT HOHENHEIM, priority 2021, published 2025)
